The results in this text go back to publication PMC10713552 (Communications Biology, 2023).

Changes are numbered by the printed parent chain.

Assay [1] addresses D614G-Hexapro (WT) spike ectodomain (SARS-CoV-2 Wuhan-Hu-1 D614G, D614G). In words: BLI.
In assay [2] the target is Omicron BA.1 spike protein ectodomain (BLI) (SARS-CoV-2 Omicron BA.1, strain). Briefly: BLI. (In general: Biolayer interferometry detects binding as a change in optical thickness at a sensor tip.)

B1: 0324-LN3_T65H (antibody, V domains shown)
VH: QVQLQQWGPGLVNPSETLSLTCSVSGGSFATENYYWSWIRQHPGEGLEWIGNIYFSGNHYYNPSLNNRFTISFDTSKNHLSLKLPSVTAADTAVYYCARGTIYFDLSGYRRVDPFHIWGQGTMVIVSS
VL: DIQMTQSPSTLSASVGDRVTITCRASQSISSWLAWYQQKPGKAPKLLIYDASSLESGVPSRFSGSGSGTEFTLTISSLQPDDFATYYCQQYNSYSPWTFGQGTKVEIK
notes: source: Expi293F, transfected
What is called Kd is a measure of binding affinity in units of concentration. A low value points to a tighter complex. What is called koff is a measure of how fast the partners let go of each other. Low values mean slow dissociation, high ones fast dissociation. For orientation: kon means a measure of how fast the partners come together. Read a high kon as fast association. In assay [1], B1 yielded a Kd of 0.276 nM, a dissociation rate constant (koff) of 0.000291 s⁻¹ and a kon of 1.06e+06 M⁻¹ s⁻¹. In assay [2], this molecule showed a dissociation constant (Kd) of 1.16 nM, a koff of 0.000413 s⁻¹ and a kon of 356000 M⁻¹ s⁻¹.

B2: 0318-IN3_T65Y (antibody, V domains shown)
VH: B1 VH with H59Y, L106I
VL: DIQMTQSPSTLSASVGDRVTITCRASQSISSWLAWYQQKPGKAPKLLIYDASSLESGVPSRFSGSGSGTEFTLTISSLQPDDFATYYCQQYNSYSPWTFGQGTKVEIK
notes: source: Expi293F, transfected
On to B2, for which, in assay [1], the Kd is 1.07 nM, the koff was found to be 0.000222 s⁻¹ and the on-rate (kon) stood at 207000 M⁻¹ s⁻¹. In assay [2], this molecule had a Kd of 29.4 nM, a koff of 0.00117 s⁻¹ and a kon of 39800 M⁻¹ s⁻¹.

B3: 0333-LN3_T65S (antibody, V domains shown)
VH: B1 VH with H59S
VL: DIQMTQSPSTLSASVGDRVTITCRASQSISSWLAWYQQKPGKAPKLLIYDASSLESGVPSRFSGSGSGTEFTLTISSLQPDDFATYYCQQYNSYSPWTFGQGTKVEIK
notes: source: Expi293F, transfected
On to B3, for which, in assay [1], the Kd stood at 146 nM, the off-rate (koff) is 4.17e-05 s⁻¹ and the on-rate (kon) is 285 M⁻¹ s⁻¹. In assay [2], this molecule gave a Kd of 11.7 nM, a koff of 0.000566 s⁻¹ and an on-rate constant (kon) of 48500 M⁻¹ s⁻¹.

B4: 0387-YN3_T65P (antibody, V domains shown)
VH: B1 VH with H59P, L106Y
VL: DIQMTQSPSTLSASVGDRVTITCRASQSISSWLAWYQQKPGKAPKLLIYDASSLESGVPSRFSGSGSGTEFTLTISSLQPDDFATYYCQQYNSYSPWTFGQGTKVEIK
notes: source: Expi293F, transfected
In assay [2], B4 returned a Kd of 9.21 nM, a koff of 9.1e-05 s⁻¹ and a kon of 9880 M⁻¹ s⁻¹.

B5: 0337-LN3_T65Y (antibody, V domains shown)
VH: B1 VH with H59Y
VL: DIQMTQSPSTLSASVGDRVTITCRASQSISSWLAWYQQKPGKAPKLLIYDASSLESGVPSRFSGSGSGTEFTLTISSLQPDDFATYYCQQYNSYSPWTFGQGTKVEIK
notes: source: Expi293F, transfected
Consider B5, for which, in assay [1], the Kd was 87.3 nM, the dissociation rate constant (koff) is 0.000393 s⁻¹ and the on-rate constant (kon) stood at 4500 M⁻¹ s⁻¹. In assay [2], this molecule showed a Kd of 11.7 nM, a koff of 0.000305 s⁻¹ and a kon of 26100 M⁻¹ s⁻¹.

B6: 0300-IN3_T65A (antibody, V domains shown)
VH: B1 VH with H59A, L106I
VL: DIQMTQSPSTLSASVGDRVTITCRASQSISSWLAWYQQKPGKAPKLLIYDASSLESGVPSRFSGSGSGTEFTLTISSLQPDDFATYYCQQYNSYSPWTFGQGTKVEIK
notes: source: Expi293F, transfected
B6: the kon in assay [1] was 210 M⁻¹ s⁻¹. In assay [2], this molecule came in with a dissociation constant Kd of 3.61 nM, a koff of 0.000404 s⁻¹ and a kon of 112000 M⁻¹ s⁻¹.

B7: 0311-IN3_T65P (antibody, V domains shown)
VH: B1 VH with H59P, L106I
VL: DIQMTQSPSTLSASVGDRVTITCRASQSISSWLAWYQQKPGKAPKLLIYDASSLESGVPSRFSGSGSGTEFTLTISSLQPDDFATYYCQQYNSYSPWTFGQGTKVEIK
notes: source: Expi293F, transfected
In assay [1], B7 yielded a Kd of 200 nM, a koff of 0.000578 s⁻¹ and a kon of 2890 M⁻¹ s⁻¹. In assay [2], binding was put at a Kd of 10.9 nM, the koff turned out to be 0.000965 s⁻¹ and the kon was found to be 88200 M⁻¹ s⁻¹.

B8: 0330-LN3_T65P (antibody, V domains shown)
VH: B1 VH with H59P
VL: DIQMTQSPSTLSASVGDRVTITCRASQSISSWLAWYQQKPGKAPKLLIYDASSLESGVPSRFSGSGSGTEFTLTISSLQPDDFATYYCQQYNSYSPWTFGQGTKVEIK
notes: source: Expi293F, transfected
B8: in assay [1], binding was characterised by a dissociation constant (Kd) of 686 nM, the koff worked out at 0.00219 s⁻¹ and the kon was found to be 3190 M⁻¹ s⁻¹. In assay [2], this molecule showed a Kd of 32.6 nM, a koff of 0.00229 s⁻¹ and a kon of 70200 M⁻¹ s⁻¹.

B9: 0309-IN3_T65M (antibody, V domains shown)
VH: B1 VH with H59M, L106I
VL: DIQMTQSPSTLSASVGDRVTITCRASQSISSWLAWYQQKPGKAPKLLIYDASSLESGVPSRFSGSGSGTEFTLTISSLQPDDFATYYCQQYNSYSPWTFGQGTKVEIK
notes: source: Expi293F, transfected
On to B9, for which the kon in assay [1] turned out to be 184 M⁻¹ s⁻¹. For the same molecule, in assay [2], binding was put at a Kd of 15.7 nM, the koff was determined as 0.00102 s⁻¹ and the on-rate (kon) came out at 64800 M⁻¹ s⁻¹.

B10: 0313-IN3_T65R (antibody, V domains shown)
VH: B1 VH with H59R, L106I
VL: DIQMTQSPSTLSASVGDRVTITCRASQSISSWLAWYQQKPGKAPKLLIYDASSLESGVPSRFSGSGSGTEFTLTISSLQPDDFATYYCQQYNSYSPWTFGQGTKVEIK
notes: source: Expi293F, transfected
In assay [1], B10 gave a Kd of 0.873 nM, a koff of 0.000516 s⁻¹ and a kon of 591000 M⁻¹ s⁻¹. In assay [2], this molecule returned a Kd of 7.36 nM, a koff of 0.000758 s⁻¹ and a kon of 103000 M⁻¹ s⁻¹.

B11: 0332-LN3_T65R (antibody, V domains shown)
VH: B1 VH with H59R
VL: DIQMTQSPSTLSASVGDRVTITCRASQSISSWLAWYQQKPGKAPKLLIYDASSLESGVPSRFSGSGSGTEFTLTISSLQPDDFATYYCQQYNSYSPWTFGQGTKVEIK
notes: source: Expi293F, transfected
In assay [2], B11 registered a Kd of 38.9 nM, a koff of 0.0018 s⁻¹ and an association rate constant (kon) of 46200 M⁻¹ s⁻¹.

B12: 0377-YN3_T65D (antibody, V domains shown)
VH: B1 VH with H59D, L106Y
VL: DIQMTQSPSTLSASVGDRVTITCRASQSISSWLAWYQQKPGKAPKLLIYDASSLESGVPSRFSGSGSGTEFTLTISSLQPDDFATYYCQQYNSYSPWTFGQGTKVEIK
notes: source: Expi293F, transfected
B12: in assay [1], the Kd was 634 nM, the koff turned out to be 0.000153 s⁻¹ and the kon is 242 M⁻¹ s⁻¹. In assay [2], this molecule gave a Kd of 13.4 nM, a koff of 0.000269 s⁻¹ and a kon of 20100 M⁻¹ s⁻¹.

B13: 0373-N3_T65V (antibody, V domains shown)
VH: B1 VH with H59V, L106R
VL: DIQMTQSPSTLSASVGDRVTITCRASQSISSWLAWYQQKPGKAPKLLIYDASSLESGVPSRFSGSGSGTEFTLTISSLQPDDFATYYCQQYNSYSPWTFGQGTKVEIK
notes: source: Expi293F, transfected
B13: in assay [1], the Kd came to 324 nM, the koff is 0.000461 s⁻¹ and the kon was determined as 1420 M⁻¹ s⁻¹. For the same molecule, in assay [2], binding was put at a Kd of 16 nM, the off-rate constant (koff) was 0.000565 s⁻¹ and the kon was 35200 M⁻¹ s⁻¹.

B14: 0342-MN3_T65G (antibody, V domains shown)
VH: B1 VH with H59G, L106M
VL: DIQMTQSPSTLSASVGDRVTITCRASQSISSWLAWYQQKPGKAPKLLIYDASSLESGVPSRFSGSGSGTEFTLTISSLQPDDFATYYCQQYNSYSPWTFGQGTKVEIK
notes: source: Expi293F, transfected
In assay [1], B14 displayed a Kd of 69.1 nM, a koff of 0.000217 s⁻¹ and a kon of 3140 M⁻¹ s⁻¹. Also, in assay [2], binding was characterised by a dissociation constant (Kd) of 8.08 nM, the koff was determined as 0.000428 s⁻¹ and the kon stood at 53000 M⁻¹ s⁻¹.

B15: 0370-N3_T65R (antibody, V domains shown)
VH: B1 VH with H59R, L106R
VL: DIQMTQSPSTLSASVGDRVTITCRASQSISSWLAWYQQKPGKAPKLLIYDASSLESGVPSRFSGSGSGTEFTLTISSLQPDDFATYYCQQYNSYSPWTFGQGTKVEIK
notes: source: Expi293F, transfected
Turning to B15, in assay [1], the Kd amounted to 111 nM, the koff worked out at 3.63e-05 s⁻¹ and the on-rate (kon) came to 328 M⁻¹ s⁻¹. In assay [2], binding was characterised by a dissociation constant (Kd) of 12.1 nM, the koff worked out at 0.000266 s⁻¹ and the kon stood at 22000 M⁻¹ s⁻¹.

B16: 0316-IN3_T65V (antibody, V domains shown)
VH: B1 VH with H59V, L106I
VL: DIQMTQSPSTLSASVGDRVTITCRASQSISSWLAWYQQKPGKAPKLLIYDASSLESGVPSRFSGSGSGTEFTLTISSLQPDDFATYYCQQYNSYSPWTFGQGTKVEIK
notes: source: Expi293F, transfected
On to B16, for which, in assay [1], the Kd worked out at 89.3 nM, the koff was found to be 2.62e-05 s⁻¹ and the kon worked out at 294 M⁻¹ s⁻¹. For the same molecule, in assay [2], the dissociation constant (Kd) turned out to be 10.6 nM, the off-rate constant (koff) turned out to be 0.000555 s⁻¹ and the kon was found to be 52400 M⁻¹ s⁻¹.

B17: 0308-IN3_T65L (antibody, V domains shown)
VH: B1 VH with H59L, L106I
VL: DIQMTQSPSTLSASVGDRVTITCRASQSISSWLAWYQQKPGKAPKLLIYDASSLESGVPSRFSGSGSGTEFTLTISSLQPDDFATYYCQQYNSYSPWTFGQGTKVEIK
notes: source: Expi293F, transfected
In assay [1], B17 came in with a Kd of 515 nM, a koff of 0.000134 s⁻¹ and a kon of 261 M⁻¹ s⁻¹. Also, in assay [2], binding was put at a Kd of 3.92 nM, the koff was 0.000364 s⁻¹ and the kon is 93000 M⁻¹ s⁻¹.

B18: 0305-IN3_T65H (antibody, V domains shown)
VH: B1 VH with L106I
VL: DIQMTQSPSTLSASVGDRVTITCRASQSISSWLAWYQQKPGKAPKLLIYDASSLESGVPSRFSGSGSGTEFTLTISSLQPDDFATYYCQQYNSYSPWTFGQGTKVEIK
notes: source: Expi293F, transfected
In assay [1], B18 showed a Kd of 387 nM, a koff of 9.99e-05 s⁻¹ and a kon of 258 M⁻¹ s⁻¹. In assay [2], this molecule displayed a Kd of 2.89 nM, a koff of 0.000368 s⁻¹ and an association rate constant (kon) of 128000 M⁻¹ s⁻¹.

B19: 0301-IN3_T65D (antibody, V domains shown)
VH: B1 VH with H59D, L106I
VL: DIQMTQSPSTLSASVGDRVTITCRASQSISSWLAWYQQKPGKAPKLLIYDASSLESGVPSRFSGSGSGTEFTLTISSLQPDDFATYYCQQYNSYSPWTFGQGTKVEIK
notes: source: Expi293F, transfected
Take B19: in assay [1], the Kd is 306 nM, the koff worked out at 6.75e-05 s⁻¹ and the kon is 221 M⁻¹ s⁻¹. In assay [2], this molecule registered a Kd of 6.38 nM, a koff of 0.000601 s⁻¹ and a kon of 94200 M⁻¹ s⁻¹.

B20: 0360-N3_T65F (antibody, V domains shown)
VH: B1 VH with H59F, L106R
VL: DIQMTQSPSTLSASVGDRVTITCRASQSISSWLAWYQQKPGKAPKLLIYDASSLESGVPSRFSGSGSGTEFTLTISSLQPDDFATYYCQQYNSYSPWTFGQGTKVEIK
notes: source: Expi293F, transfected
In assay [1], B20 yielded a dissociation constant (Kd) of 355 nM, a koff of 0.000217 s⁻¹ and a kon of 612 M⁻¹ s⁻¹. In assay [2], this molecule had a Kd of 18.5 nM, an off-rate constant (koff) of 0.000659 s⁻¹ and an on-rate (kon) of 35700 M⁻¹ s⁻¹.

B21: 0338-MN3_T65A (antibody, V domains shown)
VH: B1 VH with H59A, L106M
VL: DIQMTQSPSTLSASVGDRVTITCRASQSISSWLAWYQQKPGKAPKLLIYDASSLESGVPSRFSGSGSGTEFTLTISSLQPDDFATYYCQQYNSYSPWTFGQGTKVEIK
notes: source: Expi293F, transfected
As to B21, in assay [1], the Kd is 373 nM, the koff amounted to 0.000121 s⁻¹ and the kon worked out at 325 M⁻¹ s⁻¹. Moreover, in assay [2], binding was put at a Kd of 25 nM, the koff worked out at 0.00154 s⁻¹ and the kon turned out to be 61800 M⁻¹ s⁻¹.

B22: 0306-IN3_T65I (antibody, V domains shown)
VH: B1 VH with H59I, L106I
VL: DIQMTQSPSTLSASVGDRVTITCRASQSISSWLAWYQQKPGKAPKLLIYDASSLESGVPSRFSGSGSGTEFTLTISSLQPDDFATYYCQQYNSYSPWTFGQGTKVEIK
notes: source: Expi293F, transfected
On to B22, for which, in assay [1], binding was put at a Kd of 524 nM, the koff came to 0.000136 s⁻¹ and the kon worked out at 259 M⁻¹ s⁻¹. In assay [2], the Kd amounted to 4.36 nM, the koff is 0.000517 s⁻¹ and the kon worked out at 119000 M⁻¹ s⁻¹.

B23: 0307-IN3_T65K (antibody, V domains shown)
VH: B1 VH with H59K, L106I
VL: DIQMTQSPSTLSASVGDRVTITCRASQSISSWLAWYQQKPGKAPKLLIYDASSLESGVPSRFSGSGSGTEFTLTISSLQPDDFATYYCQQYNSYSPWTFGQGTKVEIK
notes: source: Expi293F, transfected
For B23, in assay [1], the Kd came out at 0.208 nM, the koff is 5.6e-05 s⁻¹ and the kon was found to be 269000 M⁻¹ s⁻¹. In assay [2], the Kd was 31.7 nM, the koff turned out to be 0.000872 s⁻¹ and the kon came out at 27500 M⁻¹ s⁻¹.

B24: 0303-IN3_T65F (antibody, V domains shown)
VH: B1 VH with H59F, L106I
VL: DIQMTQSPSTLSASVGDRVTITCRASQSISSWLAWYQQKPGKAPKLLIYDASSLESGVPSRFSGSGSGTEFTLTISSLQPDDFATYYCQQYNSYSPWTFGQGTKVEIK
notes: source: Expi293F, transfected
B24: in assay [1], binding was characterised by a dissociation constant (Kd) of 0.129 nM, the koff was 0.000115 s⁻¹ and the kon came to 887000 M⁻¹ s⁻¹. For the same molecule, in assay [2], the Kd is 6.04 nM, the koff came to 0.000575 s⁻¹ and the on-rate (kon) is 95200 M⁻¹ s⁻¹.

B25: 0312-IN3_T65Q (antibody, V domains shown)
VH: B1 VH with H59Q, L106I
VL: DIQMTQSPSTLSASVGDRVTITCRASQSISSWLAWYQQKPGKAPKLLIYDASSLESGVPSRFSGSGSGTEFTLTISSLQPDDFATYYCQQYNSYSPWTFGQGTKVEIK
notes: source: Expi293F, transfected
In assay [1], B25 registered a Kd of 2.23 nM, a koff of 0.000511 s⁻¹ and a kon of 229000 M⁻¹ s⁻¹. Moreover, in assay [2], the Kd worked out at 13.2 nM, the koff came to 0.000887 s⁻¹ and the association rate constant (kon) was 67300 M⁻¹ s⁻¹.

B26: 0302-IN3_T65E (antibody, V domains shown)
VH: B1 VH with H59E, L106I
VL: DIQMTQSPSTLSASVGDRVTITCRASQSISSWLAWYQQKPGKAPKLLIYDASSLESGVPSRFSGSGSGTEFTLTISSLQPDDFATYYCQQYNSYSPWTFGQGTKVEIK
notes: source: Expi293F, transfected
As for B26, in assay [1], the Kd amounted to 776 nM, the koff is 0.000163 s⁻¹ and the kon came out at 210 M⁻¹ s⁻¹. In assay [2], this molecule came in with a dissociation constant Kd of 8.27 nM, a koff of 0.000634 s⁻¹ and a kon of 76700 M⁻¹ s⁻¹.

B27: 0317-IN3_T65W (antibody, V domains shown)
VH: B1 VH with H59W, L106I
VL: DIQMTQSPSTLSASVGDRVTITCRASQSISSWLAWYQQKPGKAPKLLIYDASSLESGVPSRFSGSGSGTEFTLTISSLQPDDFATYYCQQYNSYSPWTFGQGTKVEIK
notes: source: Expi293F, transfected
In assay [1], B27 returned a Kd of 1.41 nM, a dissociation rate constant (koff) of 0.000282 s⁻¹ and a kon of 199000 M⁻¹ s⁻¹. In addition, in assay [2], the Kd is 16.3 nM, the koff turned out to be 0.000834 s⁻¹ and the kon stood at 51200 M⁻¹ s⁻¹.

B28: 0314-IN3_T65S (antibody, V domains shown)
VH: B1 VH with H59S, L106I
VL: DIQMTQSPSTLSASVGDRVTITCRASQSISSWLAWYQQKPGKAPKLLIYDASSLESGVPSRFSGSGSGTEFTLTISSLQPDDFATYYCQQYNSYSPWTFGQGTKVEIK
notes: source: Expi293F, transfected
Regarding B28, in assay [2], the Kd is 68.7 nM, the koff was 0.00114 s⁻¹ and the kon came out at 16600 M⁻¹ s⁻¹.

B29: 0310-IN3_T65N (antibody, V domains shown)
VH: B1 VH with H59N, L106I
VL: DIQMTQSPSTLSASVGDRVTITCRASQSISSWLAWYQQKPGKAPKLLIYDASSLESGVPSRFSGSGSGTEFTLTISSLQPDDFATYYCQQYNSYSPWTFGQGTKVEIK
notes: source: Expi293F, transfected
As for B29, in assay [2], binding was characterised by a dissociation constant (Kd) of 15.2 nM, the koff stood at 0.000949 s⁻¹ and the association rate constant (kon) is 62500 M⁻¹ s⁻¹.
